Test results as given in US20140274782A1, “AFFINITY REAGENTS AND METHODS FOR DETECTION, PURIFICATION, AND PROTEOMIC ANALYSIS OF METHYLATED PROTEINS” (The Board of Trustees of the Leland Stanford Junior …, priority 2013, published 2014).

T1: G9a and GLP (Homo sapiens, UniProt Q96KQ7+Q9H9B1)
T1 sequence (Q96KQ7 2-1210 limits assumed): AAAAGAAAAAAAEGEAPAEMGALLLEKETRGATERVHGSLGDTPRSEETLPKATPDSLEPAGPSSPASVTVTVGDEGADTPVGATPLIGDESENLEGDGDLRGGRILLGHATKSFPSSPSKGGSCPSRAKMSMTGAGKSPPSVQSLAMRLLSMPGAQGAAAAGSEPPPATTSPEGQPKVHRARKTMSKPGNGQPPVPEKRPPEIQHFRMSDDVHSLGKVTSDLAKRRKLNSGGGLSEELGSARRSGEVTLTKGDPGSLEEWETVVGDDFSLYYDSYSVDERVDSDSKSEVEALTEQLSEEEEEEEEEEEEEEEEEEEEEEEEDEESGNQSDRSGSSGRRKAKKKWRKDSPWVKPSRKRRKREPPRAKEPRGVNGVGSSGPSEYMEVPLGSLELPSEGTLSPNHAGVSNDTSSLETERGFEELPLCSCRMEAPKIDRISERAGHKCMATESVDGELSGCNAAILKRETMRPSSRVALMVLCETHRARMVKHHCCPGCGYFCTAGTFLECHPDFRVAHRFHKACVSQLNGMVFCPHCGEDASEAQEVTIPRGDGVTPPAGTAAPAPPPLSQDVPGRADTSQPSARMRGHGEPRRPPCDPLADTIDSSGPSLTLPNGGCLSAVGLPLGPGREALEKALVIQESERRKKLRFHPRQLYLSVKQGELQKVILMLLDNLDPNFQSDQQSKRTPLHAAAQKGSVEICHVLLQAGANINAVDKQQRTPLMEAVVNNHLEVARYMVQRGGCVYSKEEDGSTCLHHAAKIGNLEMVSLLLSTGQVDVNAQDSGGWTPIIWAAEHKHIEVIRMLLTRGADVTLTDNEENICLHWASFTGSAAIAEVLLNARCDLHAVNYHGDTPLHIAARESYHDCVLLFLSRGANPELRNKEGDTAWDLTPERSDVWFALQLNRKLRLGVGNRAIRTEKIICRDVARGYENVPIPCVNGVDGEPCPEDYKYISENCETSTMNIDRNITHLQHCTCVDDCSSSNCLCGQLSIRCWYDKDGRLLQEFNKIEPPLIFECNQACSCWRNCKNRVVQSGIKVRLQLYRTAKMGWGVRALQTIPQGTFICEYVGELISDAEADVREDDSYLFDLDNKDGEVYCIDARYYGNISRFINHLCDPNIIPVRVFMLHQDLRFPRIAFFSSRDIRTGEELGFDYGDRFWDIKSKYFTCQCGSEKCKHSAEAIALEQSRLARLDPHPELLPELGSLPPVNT
T1 sequence (Q9H9B1 2-1298 limits assumed): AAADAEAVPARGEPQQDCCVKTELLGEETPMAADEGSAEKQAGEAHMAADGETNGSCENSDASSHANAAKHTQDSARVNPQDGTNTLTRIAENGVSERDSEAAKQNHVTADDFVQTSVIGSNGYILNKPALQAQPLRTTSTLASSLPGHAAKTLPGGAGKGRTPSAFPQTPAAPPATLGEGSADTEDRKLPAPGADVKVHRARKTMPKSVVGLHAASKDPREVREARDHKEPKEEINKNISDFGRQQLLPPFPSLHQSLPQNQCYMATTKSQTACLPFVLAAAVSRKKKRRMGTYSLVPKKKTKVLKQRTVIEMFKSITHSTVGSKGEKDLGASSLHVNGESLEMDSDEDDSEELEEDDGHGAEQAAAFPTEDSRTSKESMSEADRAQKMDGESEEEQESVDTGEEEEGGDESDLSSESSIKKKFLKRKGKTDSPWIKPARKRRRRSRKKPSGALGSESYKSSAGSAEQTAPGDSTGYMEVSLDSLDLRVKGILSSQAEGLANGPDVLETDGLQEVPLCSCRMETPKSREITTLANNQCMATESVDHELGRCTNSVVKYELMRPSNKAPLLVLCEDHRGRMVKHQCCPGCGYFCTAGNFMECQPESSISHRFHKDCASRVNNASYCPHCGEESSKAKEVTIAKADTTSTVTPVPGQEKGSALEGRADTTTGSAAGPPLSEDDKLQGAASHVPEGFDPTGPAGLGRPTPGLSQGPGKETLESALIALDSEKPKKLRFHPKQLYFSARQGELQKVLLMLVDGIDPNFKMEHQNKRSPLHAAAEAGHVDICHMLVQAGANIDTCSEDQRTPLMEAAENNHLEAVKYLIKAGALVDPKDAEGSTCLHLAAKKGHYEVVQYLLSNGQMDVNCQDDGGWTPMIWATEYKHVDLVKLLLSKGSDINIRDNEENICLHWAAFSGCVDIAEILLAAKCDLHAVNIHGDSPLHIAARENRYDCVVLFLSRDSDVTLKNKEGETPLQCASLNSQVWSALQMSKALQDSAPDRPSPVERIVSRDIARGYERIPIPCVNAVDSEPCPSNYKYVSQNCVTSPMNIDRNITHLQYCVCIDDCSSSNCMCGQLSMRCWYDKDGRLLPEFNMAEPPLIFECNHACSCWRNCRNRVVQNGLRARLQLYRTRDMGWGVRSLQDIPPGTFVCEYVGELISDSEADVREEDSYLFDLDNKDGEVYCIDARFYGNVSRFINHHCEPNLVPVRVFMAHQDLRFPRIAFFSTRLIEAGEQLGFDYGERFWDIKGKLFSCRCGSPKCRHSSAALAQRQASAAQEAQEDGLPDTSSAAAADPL

B1: Metastasis-associated protein 1 (protein)
chain: MAANMYRVGDYVYFENSSSNPYLIRRIEELNKTANGNVEAKVVCFYRRRDISSTLIALADKHATLSVCYKAGPGADNGEEGEIEEEMENPEMVDLPEKLKHQLRHRELFLSRQLESLPATHIRGKCSVTLLNETESLKSYLEREDFFFYSLVYDPQQKTLLADKGEIRVGNRYQADITDLLKEGEEDGRDQSRLETQVWEAHNPLTDKQIDQFLVVARSVGTFARALDCSSSVRQPSLHMSAAAASRDITLFHAMDTLHKNIYDISKAISALVPQGGPVLCRDEMEEWSASEANLFEEALEKYGKDFTDIQQDFLPWKSLTSIIEYYYMWKTTDRYVQQKRLKAAEAESKLKQVYIPNYNKPNPNQISVNNVKAGVVNGTGAPGQSPGAGRACESCYTTQSYQWYSWGPPNMQCRLCASCWTYWKKYGGLKMPTRLDGERPGPNRSNMSPHGLPARSSGSPKFAMKTRQAFYLHTTKLTRIARRLCREILRPWHAARHPYLPINSAAIKAECTARLPEASQSPLVLKQAVRKPLEAVLRYLETHPRPPKPDPVKSVSSVLSSLTPAKVAPVINNGSPTILGKRSYEQHNGVDGNMKKRLLMPSRGLANHGQARHMGPSRNLLLNGKSYPTKVRLIRGGSLPPVKRRRMNWIDAPDDVFYMATEETRKIRKLLSSSETKRAARRPYKPIALRQSQALPPRPPPPAPVNDEPIVIED
B2: Cytoplasmic FMR1-interacting protein 1 (protein, UniProt Q7L576 1-1253, looked up)
Cytoplasmic FMR1-interacting …: MAAQVTLEDALSNVDLLEELPLPDQQPCIEPPPSSLLYQPNFNTNFEDRNAFVTGIARYIEQATVHSSMNEMLEEGQEYAVMLYTWRSCSRAIPQVKCNEQPNRVEIYEKTVEVLEPEVTKLMNFMYFQRNAIERFCGEVRRLCHAERRKDFVSEAYLITLGKFINMFAVLDELKNMKCSVKNDHSAYKRAAQFLRKMADPQSIQESQNLSMFLANHNKITQSLQQQLEVISGYEELLADIVNLCVDYYENRMYLTPSEKHMLLKVMGFGLYLMDGSVSNIYKLDAKKRINLSKIDKYFKQLQVVPLFGDMQIELARYIKTSAHYEENKSRWTCTSSGSSPQYNICEQMIQIREDHMRFISELARYSNSEVVTGSGRQEAQKTDAEYRKLFDLALQGLQLLSQWSAHVMEVYSWKLVHPTDKYSNKDCPDSAEEYERATRYNYTSEEKFALVEVIAMIKGLQVLMGRMESVFNHAIRHTVYAALQDFSQVTLREPLRQAIKKKKNVIQSVLQAIRKTVCDWETGHEPFNDPALRGEKDPKSGFDIKVPRRAVGPSSTQLYMVRTMLESLIADKSGSKKTLRSSLEGPTILDIEKFHRESFFYTHLINFSETLQQCCDLSQLWFREFFLELTMGRRIQFPIEMSMPWILTDHILETKEASMMEYVLYSLDLYNDSAHYALTRFNKQFLYDEIEAEVNLCFDQFVYKLADQIFAYYKVMAGSLLLDKRLRSECKNQGATIHLPPSNRYETLLKQRHVQLLGRSIDLNRLITQRVSAAMYKSLELAIGRFESEDLTSIVELDGLLEINRMTHKLLSRYLTLDGFDAMFREANHNVSAPYGRITLHVFWELNYDFLPNYCYNGSTNRFVRTVLPFSQEFQRDKQPNAQPQYLHGSKALNLAYSSIYGSYRNFVGPPHFQVICRLLGYQGIAVVMEELLKVVKSLLQGTILQYVKTLMEVMPKICRLPRHEYGSPGILEFFHHQLKDIVEYAELKTVCFQNLREVGNAILFCLLIEQSLSLEEVCDLLHAAPFQNILPRVHVKEGERLDAKMKRLESKYAPLHLVPLIERLGTPQQIAIAREGDLLTKERLCCGLSMFEVILTRIRSFLDDPIWRGPLPSNGVMHVDECVEFHRLWSAMQFVYCIPVGTHEFTVEQCFGDGLHWAGCMIIVLLGQQRRFAVLDFCYHLLKVQKHDGKDEIIKNVPLKKMVERIRKFQILNDEIITILDKYLKSGDGEGTPVEHVRCFQPPIHQSLASS

How the values were obtained:
3×MBT domain of L3MBTL1 = assay: Triple SILAC pull-down, 3xMBT/3xMBTD355N ratio (cytoplasmic, nuclear and chromatin fractions of 293T cells); format: binding, human; details: SILAC ratio; for Protein Ratios 3xMBT/D355N: pull-down by 3xMBT vs 3xMBTD355N, 293T cells;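 as to all read-outs here: proteins quantified with MaxQuant, requiring at least two unique peptides and quantification in both label directions, normalized to the mean of proteins from a digested loading control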
G9a and GLP = biological target: T1, G9a and GLP; assay: Triple SILAC pull-down after UNC0638 treatment of 293T cells, DMSO/UNC0638 ratio of protein captured by 3×MBT; format: cell-based; parameters: cells were treated for 24 hours with UNC0638 at 2.5 μM or DMSO vehicle control; endogenous in cells; host or cells: HEK 293T; details: for Protein Ratios DMSO/UNC0638: SILAC ratio of protein captured by 3xMBT, 293T cells treated 24 hours with UNC0638 at 2.5 μM or DMSO;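 as to all read-outs here: mass spectrometry (Q-Exactive) SILAC quantitation, DMSO/UNC0638 ratio computed after subtracting 3×MBTD355N mutant pull-down background, only proteins with at least twofold 3×MBT over mutant signal considered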

| Molecule | 3xMBT/D355N UNC Heavy (3×MBT domain of L3MBTL1; pull-down 3xMBT vs 3xMBTD355N, experiment with UNC0638 in heavy SILAC media) | 3xMBT/D355N UNC Light (3×MBT domain of L3MBTL1; pull-down 3xMBT vs 3xMBTD355N, experiment with UNC0638 in light SILAC media) | Protein Ratios 3xMBT/D355N (3×MBT domain of L3MBTL1) | Relative to UNC0638 UNC Heavy (G9a and GLP; SILAC ratio DMSO/UNC0638 of protein pulled down with 3xMBT, UNC0638 in heavy SILAC media) | Relative to UNC0638 UNC Light (G9a and GLP; SILAC ratio DMSO/UNC0638 of protein pulled down with 3xMBT, UNC0638 in light SILAC media) | Protein Ratios DMSO/UNC0638 (G9a and GLP) | Relative to UNC0638 Average (G9a and GLP; average of UNC Light and UNC Heavy experiments) | Candidate G9a/GLP target (G9a and GLP; reduced association with 3xMBT after UNC0638 treatment) |
| --- | --- | --- | --- | --- | --- | --- | --- | --- |
| B1 | 0.90 log base 2 | 4.28 log base 2 | 6.0 | 0.36 log base 2 | 0.56 log base 2 | 1.4 | 0.46 log base 2 | ✓ |
| B2 |  |  | 3.4 |  |  | 1.4 |  |  |
